Laboratory results: article PMC6509336, “Wnt5a is a TLR2/4-ligand that induces tolerance in human myeloid cells” (Communications Biology, 2019)

Key:
Assay in all cases: SPR; Biacore 3000, CM5 chip; rhTLR2, rhTLR4/MD2 and rhTLR4 amine-coupled (4.0, 4.7, 4.0 kRU); Wnt5a or Wnt3a injected at 25-100 nM for 2 min at 30 ul/min in HBS-P (10 mM HEPES, 0.15 M NaCl, 0.005% P20, pH 7.4) with ZnCl2 and CaCl2; Req from a 1:1 fit plotted against concentration and fit to a one-site hyperbola (steady-state KD)
Conditions in all cases: both partners purified
rhTLR4 = biological target: T1, rhTLR4 (human, UniProt O00206 24-631)
T1 construct: toll-like receptor 4, recombinant human protein from R&D Systems; No catalogue number or construct limits are printed; also called rhTLR4-his; source: bought: R&D Systems

rhTLR4/MD2 = biological target: T2, rhTLR4/MD2 (human, UniProt O00206 24-631; Q9Y6Y9 19-160)
T2 construct: toll-like receptor 4 in the recombinant human TLR4/MD2 complex from R&D Systems; MD2 (lymphocyte antigen 96) in the recombinant human TLR4/MD2 complex from R&D Systems; Bought as a preformed complex; No catalogue number, tags or construct limits are printed; source: bought: R&D Systems

rhTLR2 = biological target: T3, rhTLR2 (human, UniProt O60603 21-588)
T3 construct: toll-like receptor 2, recombinant human protein from R&D Systems; No catalogue number, tags or construct limits are printed; source: bought: R&D Systems
T3 sequence (O60603 21-588): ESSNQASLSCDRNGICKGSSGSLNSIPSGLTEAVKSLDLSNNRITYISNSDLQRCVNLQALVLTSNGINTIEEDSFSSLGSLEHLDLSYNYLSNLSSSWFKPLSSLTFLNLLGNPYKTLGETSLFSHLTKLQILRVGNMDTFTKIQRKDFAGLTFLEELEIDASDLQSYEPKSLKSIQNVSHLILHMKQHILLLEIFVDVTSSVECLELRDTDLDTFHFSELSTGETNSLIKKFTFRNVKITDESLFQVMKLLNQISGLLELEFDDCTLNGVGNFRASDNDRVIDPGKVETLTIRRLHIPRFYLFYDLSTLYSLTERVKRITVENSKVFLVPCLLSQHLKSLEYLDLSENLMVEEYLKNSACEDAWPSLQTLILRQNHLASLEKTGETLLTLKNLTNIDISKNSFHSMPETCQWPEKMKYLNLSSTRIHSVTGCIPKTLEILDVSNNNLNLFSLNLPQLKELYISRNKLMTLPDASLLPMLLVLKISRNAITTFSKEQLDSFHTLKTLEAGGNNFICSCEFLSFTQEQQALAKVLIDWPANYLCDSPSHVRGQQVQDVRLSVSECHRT

T1 sequence (O00206 24-631): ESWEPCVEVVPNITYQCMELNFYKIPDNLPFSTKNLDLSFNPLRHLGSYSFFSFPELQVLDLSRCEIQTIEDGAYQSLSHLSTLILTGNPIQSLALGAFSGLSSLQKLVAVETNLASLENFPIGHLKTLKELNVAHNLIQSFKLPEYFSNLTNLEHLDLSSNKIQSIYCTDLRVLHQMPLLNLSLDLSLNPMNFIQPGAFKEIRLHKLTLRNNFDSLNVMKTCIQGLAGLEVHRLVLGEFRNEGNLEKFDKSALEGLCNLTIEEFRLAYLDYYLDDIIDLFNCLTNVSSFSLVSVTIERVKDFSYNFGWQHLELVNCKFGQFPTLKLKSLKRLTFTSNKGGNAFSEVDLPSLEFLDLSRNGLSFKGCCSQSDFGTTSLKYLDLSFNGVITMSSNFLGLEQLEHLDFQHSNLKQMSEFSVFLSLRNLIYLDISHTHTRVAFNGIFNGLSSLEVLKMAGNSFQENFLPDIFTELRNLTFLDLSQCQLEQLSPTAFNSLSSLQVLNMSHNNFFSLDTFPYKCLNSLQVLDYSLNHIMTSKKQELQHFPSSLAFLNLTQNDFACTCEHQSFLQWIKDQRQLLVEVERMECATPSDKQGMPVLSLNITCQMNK
T2 sequence (O00206 24-631, chain 1 of 2): as the sequence (O00206 24-631) above
T2 sequence (Q9Y6Y9 19-160, chain 2 of 2): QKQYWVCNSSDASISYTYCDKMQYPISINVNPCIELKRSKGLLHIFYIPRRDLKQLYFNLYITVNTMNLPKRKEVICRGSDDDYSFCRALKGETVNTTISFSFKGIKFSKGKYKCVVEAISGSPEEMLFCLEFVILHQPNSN

Kd (rhTLR4): 44.5 nM
Kd (rhTLR4/MD2): 35.5 nM
Kd (rhTLR2): 26.5 nM
B1: recombinant human/mouse (rh/m)Wnt5a (ligand, UniProt P41221 62-380, looked up)
chain: IIGAQPLCSQLAGLSQGQKKLCHLYQDHMQYIGEGAKTGIKECQYQFRHRRWNCSTVDNTSVFGRVMQIGSRETAFTYAVSAAGVVNAMSRACREGELSTCGCSRAARPKDLPRDWLWGGCGDNIDYGYRFAKEFVDARERERIHAKGSYESARILMNLHNNEAGRRTVYNLADVACKCHGVSGSCSLKTCWLQLADFRKVGDALKEKYDSAAAMRLNSRGKLVQVNSRFNSPTTQDLVYIDPSPDYCVRNESTGSLGTQGRLCNKTSEGMDGCELMCCGRGYDQFKTVQTERCHCKFHWCCYVKCKKCTEIVDQFVCK
notes: Wnt5a, recombinant human/mouse protein from R&D Systems, molecular weight 38,000; Lyophilized from PBS, EDTA and CHAPS; No catalogue number is printed; also called rWnt5a; source: bought: R&D Systems
